Values quoted from earlier work in article PMC8592953.
Like-named read-outs stand apart in the source and are kept apart here.

How the values were obtained:
[1] = molecular target: RAGE (soluble) soluble (Homo sapiens) (UniProt Q15109)
[2] = molecular target: RAGE (soluble) soluble (Homo sapiens) (UniProt Q15109); remark: listed apart in the source

UniProt Q15109, sequence (Q15109 23-342): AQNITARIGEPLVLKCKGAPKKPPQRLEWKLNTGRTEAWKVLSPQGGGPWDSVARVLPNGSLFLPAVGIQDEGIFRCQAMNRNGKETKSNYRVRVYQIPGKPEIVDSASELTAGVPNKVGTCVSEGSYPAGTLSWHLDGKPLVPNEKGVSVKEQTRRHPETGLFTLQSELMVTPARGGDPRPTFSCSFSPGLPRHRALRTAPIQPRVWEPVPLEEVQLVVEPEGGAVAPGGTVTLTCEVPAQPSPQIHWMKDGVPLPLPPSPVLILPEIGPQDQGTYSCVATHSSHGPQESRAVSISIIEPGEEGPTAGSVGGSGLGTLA

Substance	Kd [1]	Kd [2]
AGE-modified bovine serum albumin (BSA-AGE) (from UniProt P02769)	1000 nM	
glyoxylic acid-glycated bovine serum albumin (from UniProt P02769)		100 nM
